Data published in patent publication US20170158755A1 (PROTHENA BIOSCIENCES, published 2017).
Blank lines part the entries; values can stand above or below the binder they belong to.

Columns and labels:
mouse His-laminin-α4 = biological target: T1, mouse His-laminin-α4 (mouse, UniProt P97927 826-1816, limits assumed); assay: Biacore SPR
T1 construct: Bought His-tagged recombinant protein; also called Murine LAMA4; recombinant mouse LAMA4-His
T1 sequence (looked up): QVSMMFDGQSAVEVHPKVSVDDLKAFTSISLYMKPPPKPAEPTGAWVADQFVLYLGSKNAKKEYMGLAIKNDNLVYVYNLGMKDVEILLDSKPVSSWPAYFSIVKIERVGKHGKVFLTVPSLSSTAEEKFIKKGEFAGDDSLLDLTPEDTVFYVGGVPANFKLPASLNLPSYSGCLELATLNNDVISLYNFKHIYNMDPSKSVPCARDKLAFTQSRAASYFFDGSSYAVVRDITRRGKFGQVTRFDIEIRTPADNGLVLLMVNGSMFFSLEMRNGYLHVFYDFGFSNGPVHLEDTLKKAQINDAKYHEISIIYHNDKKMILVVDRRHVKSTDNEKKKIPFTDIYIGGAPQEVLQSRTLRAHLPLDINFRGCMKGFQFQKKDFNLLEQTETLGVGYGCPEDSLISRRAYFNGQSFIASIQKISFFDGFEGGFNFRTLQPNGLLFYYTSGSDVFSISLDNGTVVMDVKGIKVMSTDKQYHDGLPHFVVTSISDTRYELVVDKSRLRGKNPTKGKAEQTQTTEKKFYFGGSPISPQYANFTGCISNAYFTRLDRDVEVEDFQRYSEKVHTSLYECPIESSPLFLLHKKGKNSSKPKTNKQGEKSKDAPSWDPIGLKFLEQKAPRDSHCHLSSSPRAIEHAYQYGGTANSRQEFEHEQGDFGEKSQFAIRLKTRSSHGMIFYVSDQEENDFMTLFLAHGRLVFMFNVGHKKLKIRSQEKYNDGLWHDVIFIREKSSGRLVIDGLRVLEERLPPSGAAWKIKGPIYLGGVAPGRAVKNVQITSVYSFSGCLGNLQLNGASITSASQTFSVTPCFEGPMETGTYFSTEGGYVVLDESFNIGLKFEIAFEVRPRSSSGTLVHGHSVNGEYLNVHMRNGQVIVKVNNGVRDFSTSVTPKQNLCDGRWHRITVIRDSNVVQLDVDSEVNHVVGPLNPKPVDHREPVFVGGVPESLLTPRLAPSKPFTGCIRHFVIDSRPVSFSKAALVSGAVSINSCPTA

human His-laminin-α4 = biological target: T2, human His-laminin-α4 (human, UniProt Q16363 833-1823, limits assumed); assay: Biacore SPR
T2 construct: Bought His-tagged recombinant protein (R & D Systems); also called Human LAMA4; human His-laminin-α4 (R & D Systems)
T2 sequence: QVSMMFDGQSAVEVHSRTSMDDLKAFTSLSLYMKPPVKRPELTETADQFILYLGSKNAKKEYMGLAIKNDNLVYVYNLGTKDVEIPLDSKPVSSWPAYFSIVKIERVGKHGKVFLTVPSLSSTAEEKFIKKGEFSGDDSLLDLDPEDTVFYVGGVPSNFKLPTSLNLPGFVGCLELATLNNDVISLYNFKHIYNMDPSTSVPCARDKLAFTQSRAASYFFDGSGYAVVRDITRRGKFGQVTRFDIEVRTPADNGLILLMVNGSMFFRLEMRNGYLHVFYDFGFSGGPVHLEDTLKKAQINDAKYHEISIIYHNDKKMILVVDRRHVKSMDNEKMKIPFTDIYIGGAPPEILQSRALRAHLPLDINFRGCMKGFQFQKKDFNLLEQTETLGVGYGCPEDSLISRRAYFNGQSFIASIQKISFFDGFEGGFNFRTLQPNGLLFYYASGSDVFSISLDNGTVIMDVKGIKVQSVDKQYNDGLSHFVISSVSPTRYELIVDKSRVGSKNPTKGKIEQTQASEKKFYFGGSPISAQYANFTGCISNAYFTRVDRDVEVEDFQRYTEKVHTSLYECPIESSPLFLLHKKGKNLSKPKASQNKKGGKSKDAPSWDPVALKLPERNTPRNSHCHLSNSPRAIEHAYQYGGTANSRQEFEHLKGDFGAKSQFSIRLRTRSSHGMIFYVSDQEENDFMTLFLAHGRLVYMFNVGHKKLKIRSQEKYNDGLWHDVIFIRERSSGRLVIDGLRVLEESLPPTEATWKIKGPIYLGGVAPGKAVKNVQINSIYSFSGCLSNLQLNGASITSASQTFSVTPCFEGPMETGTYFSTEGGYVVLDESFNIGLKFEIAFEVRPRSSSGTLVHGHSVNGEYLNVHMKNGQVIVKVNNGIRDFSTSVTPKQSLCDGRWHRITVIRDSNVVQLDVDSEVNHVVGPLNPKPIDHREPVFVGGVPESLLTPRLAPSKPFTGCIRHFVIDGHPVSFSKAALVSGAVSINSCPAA

Kd (mouse His-laminin-α4): 0.965 nM
koff (mouse His-laminin-α4): 0.0061 s⁻¹
kon (mouse His-laminin-α4): 6.32e+06 M⁻¹ s⁻¹
Kd (human His-laminin-α4): 1.27 nM
koff (human His-laminin-α4): 0.00858 s⁻¹
kon (human His-laminin-α4): 6.72e+06 M⁻¹ s⁻¹
B1: mouse monoclonal antibody 19C12 (antibody, V domains shown)
VH: QVQLQQSGAELVKPGASVKISCKASGYAFSTYWMNWVKQRPGEGLEWIGQIYPGDGDTNYNGKFKGKATLTADKSSSTAYMQLSSLTSEDSAVYFCARSDGYYDYWGQGTTLTVSS
VL: NIVLTQSPASLAVSLGQRATISCRASESVDSYGTSFMHWYQQKPGQPPKLLICLASSLESGVPARFSGSGSRTDFTLTIDPVEADDAATYYCQQNNEDPPTFGAGTKLELKR
notes: Mouse hybridoma antibody; Mouse IgG2b was used as its isotype control; also called m19C12

Kd (mouse His-laminin-α4): 16.1 nM
koff (mouse His-laminin-α4): 0.00947 s⁻¹
kon (mouse His-laminin-α4): 590000 M⁻¹ s⁻¹
Kd (human His-laminin-α4): 13.3 nM
koff (human His-laminin-α4): 0.00917 s⁻¹
kon (human His-laminin-α4): 610000 M⁻¹ s⁻¹
B2: mouse monoclonal antibody 1C1 (antibody, V domains shown)
VH: QVQLQQSGAELARPGASVKLSCKASGYTFTNYGISWVKQRTGQGLEWIGAIYPRSGNTYYNEKFKGKATLTADKSSSTAYMELRSLTSEDSAVYFCARERDYGSSYALDYWGQGTSVTVSS
VL: DIVMTQSQKFMSTSVGDRVSVTCKASHNVGTNVAWYQQKPGQSPKPLIYSASYRYSGVPDRFTGSGSGTDFTLTISNVQSEDLADYFCQQFNNYPYTFGGGTKLEIKR
notes: version 1 is written here
